Here are results for 20 molecules from PMC3713010, “Sox2 Transcriptionally Regulates Pqbp1, an Intellectual Disability-Microcephaly Causative Gene, in Neural Stem Progenitor Cells”.

Assay in all cases: EMSA; 10% glycerol, 20 mM HEPES pH 7.8, 45 mM KCl, 10 mM NaCl, 1 mM EDTA, 1 mM DTT, 0.2 ug/uL BSA, 0.1% NP-40, 50 ng poly-dIdC; 20 ng each GST protein; room temperature 30 min (heterodimers 4 C); 6% PAGE 0.25x TBE
Holding throughout (conditions): protein: recombinant; tags: GST (N-terminal, pGEX-6P-1); label: 32P-dCTP fill-in of the 5' (dG)5 overhangs of both strands (Methods; control probes are given with GGG)

For data set [1], the target named is Pax6 DNA-binding domain (BD-Pax6) (Mus musculus (B6), UniProt P63015 190-289). The essentials:
(§1)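 Transcription factor DNA-binding domains carrying a GST tag were expressed in E. coli BL21, purified on glutathione-sepharose and tested against annealed candidate cis-element oligonucleotides labelled with 32P-dCTP. Each reaction held 20 ng protein, 40,000–50,000 cpm probe and 50 ng poly-dIdC in HEPES/KCl glycerol buffer with BSA and detergent, incubated 30 min at room temperature, then run on 6% polyacrylamide in 0.25×TBE at 4°C. DNA binding was scored as the radioactivity of the band in the expected shift region, read on a phosphor imager.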

Data set [2] addresses T1, Brn2 DNA-binding domain (BD-Brn2) (Mus musculus (B6), UniProt P31360 336-435).
T1 sequence: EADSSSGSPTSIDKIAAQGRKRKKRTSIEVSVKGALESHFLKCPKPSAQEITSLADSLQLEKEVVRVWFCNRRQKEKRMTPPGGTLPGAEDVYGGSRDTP
A digest of the protocol: as §1

Data set [3] has as its target T2, Oct6 DNA-binding domain (BD-Oct6) (Mus musculus (B6), UniProt P21952 317-416).
T2 sequence: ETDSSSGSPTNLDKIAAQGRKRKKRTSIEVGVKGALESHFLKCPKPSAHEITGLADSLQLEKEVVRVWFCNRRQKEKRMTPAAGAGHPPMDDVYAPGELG
A digest of the protocol:
as §1

Chain of Pax6 DNA-binding domain (BD-Pax6) (P63015 190-289): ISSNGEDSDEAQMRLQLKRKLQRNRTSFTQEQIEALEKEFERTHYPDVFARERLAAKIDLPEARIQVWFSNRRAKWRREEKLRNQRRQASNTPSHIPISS

B1: 38 (dsDNA)
DNA 1: GGGGGAGGTTTTGATGATTATGAACAAAGCTTCTGTCCCCC
DNA 2: GGGGGACAGAAGCTTTGTTCATAATCATCAAAACCTCCCCC
Consider B1, for which the binding result in data set [1] is recorded as “no binding”; in data set [2] it was “no binding”; in data set [3], “binds”.

B2: 31 (dsDNA)
DNA 1: GGGGGTCCTCTCCTTTGTTTTGTCCTCACACCCCCAGCTGACCAGGTGCCCCC
DNA 2: GGGGGCACCTGGTCAGCTGGGGGTGTGAGGACAAAACAAAGGAGAGGACCCCC
As to B2, the binding result in data set [1], in data set [2] and in data set [3] was “no binding” throughout.

B3: 34 (dsDNA)
DNA 1: GGGGGTTGTTCCCTTTGACTTCTTGTGACTTTAACAAATTCTAAAGCCCCC
DNA 2: GGGGGCTTTAGAATTTGTTAAAGTCACAAGAAGTCAAAGGGAACAACCCCC
B3: the binding result in data set [1] is “binds”; in data set [2], “no binding”; in data set [3], “no binding”.

B4: 41 (dsDNA)
DNA 1: GGGGGTTTGGAAAACAAAACATTAACCAAAATTTTCCCCC
DNA 2: GGGGGAAAATTTTGGTTAATGTTTTGTTTTCCAAACCCCC
As for B4, the binding result was “binds” in data set [1], “no binding” in data set [2] and “binds” in data set [3].

B5: 42 (dsDNA)
DNA 1: GGGGGGCTTCAGCATTGTGAAATTGAATCATTGCCCCCC
DNA 2: GGGGGGCAATGATTCAATTTCACAATGCTGAAGCCCCCC
B5: the binding result is “binds” in data set [1], “no binding” in data set [2] and “no binding” in data set [3].

B6: 44 (dsDNA)
DNA 1: GGGGGAAACCATGGGGGGTGGGCTGTAAACACAAAAAGGATTCCCCCC
DNA 2: GGGGGGAATCCTTTTTGTGTTTACAGCCCACCCCCCATGGTTTCCCCC
Turning to B6, the binding result in data set [1], in data set [2] and in data set [3] was “no binding” in each case.

B7: 30 (dsDNA)
DNA 1: GGGGGTGTCTTCTCCCTAATGATTGTTGTATGACCCCCC
DNA 2: GGGGGGTCATACAACAATCATTAGGGAGAAGACACCCCC
Turning to B7, the binding result is reported as “no binding” in data set [1], “binds” in data set [2] and “binds” in data set [3].

B8: 45 (dsDNA)
DNA 1: GGGGGAAATGTGCTTTATTTCACAAAATCAACAACCCCC
DNA 2: GGGGGTTGTTGATTTTGTGAAATAAAGCACATTTCCCCC
In the case of B8, the binding result in data set [1] is “binds”; in data set [2] it was “no binding”; in data set [3], “binds”.

B9: 46 (dsDNA)
DNA 1: GGGGGTTATTTCACAAAATCAACAAATCAAAAAGCCCCC
DNA 2: GGGGGCTTTTTGATTTGTTGATTTTGTGAAATAACCCCC
On to B9, for which the binding result is reported as “binds” in data set [1], “no binding” in data set [2] and “binds” in data set [3].

B10: 40 (dsDNA)
DNA 1: GGGGGTTTGTCATTTTGTAGTGCTAGGAATTAAACCCATGTCCCCC
DNA 2: GGGGGACATGGGTTTAATTCCTAGCACTACAAAATGACAAACCCCC
With B10, the binding result in data set [1], in data set [2] and in data set [3] was “binds” throughout.

B11: 33 (dsDNA)
DNA 1: GGGGGATAGTACATTTGTTGTCATTAACAAATCAGTCCCCC
DNA 2: GGGGGACTGATTTGTTAATGACAACAAATGTACTATCCCCC
On to B11, for which the binding result in data set [1], in data set [2] and in data set [3] was “binds” each time.

B12: 36 (dsDNA)
DNA 1: GGGGGTGCATACATTTGTAATTCATTTAGGTGGTTTTCCCCC
DNA 2: GGGGGAAAACCACCTAAATGAATTACAAATGTATGCACCCCC
As for B12, the binding result in data set [1], in data set [2] and in data set [3] was “binds” in each case.

B13: 35 (dsDNA)
DNA 1: GGGGGGTTTCTCTAATTAATAGACTTCATTGTTCAAAACTATTTTACATTTGTTCCCCC
DNA 2: GGGGGAACAAATGTAAAATAGTTTTGAACAATGAAGTCTATTAATTAGAGAAACCCCCC
As to B13, the binding result in data set [1], in data set [2] and in data set [3] was “binds” throughout.

B14: 48 (dsDNA)
DNA 1: GGGGGATGAAATGGCTAAATCCTTTTTTTGTTGTTTGTTCCCCC
DNA 2: GGGGGAACAAACAACAAAAAAAGGATTTAGCCATTTCATCCCCC
In the case of B14, the binding result in data set [1] is given as “binds”; in data set [2], “no binding”; in data set [3], “no binding”.

B15: 43 (dsDNA)
DNA 1: GGGGGAGGAGTGCTTTGTAAAAATAACTTCTATGTCCCCC
DNA 2: GGGGGACATAGAAGTTATTTTTACAAAGCACTCCTCCCCC
Consider B15, for which the binding result in data set [1], in data set [2] and in data set [3] was “no binding” in each case.

B16: 37 (dsDNA)
DNA 1: GGGGGTTTCATGGTTTGTTAGCTATTCTCTTATCACCCCCC
DNA 2: GGGGGGTGATAAGAGAATAGCTAACAAACCATGAAACCCCC
For B16, the binding result in data set [1], in data set [2] and in data set [3] was “no binding” throughout.

B17: 39 (dsDNA)
DNA 1: GGGGGTTCAGGTTTTTGTAGGAACTTAAATTTTATGATTAGCCCCC
DNA 2: GGGGGCTAATCATAAAATTTAAGTTCCTACAAAAACCTGAACCCCC
Regarding B17, the binding result in data set [1], in data set [2] and in data set [3] was “binds” throughout.

B18: 47 (dsDNA)
DNA 1: GGGGGCCACCATCTGTAATGTCCTTGGCACAATAAAACCAACCCCC
DNA 2: GGGGGTTGGTTTTATTGTGCCAAGGACATTACAGATGGTGGCCCCC
As for B18, the results for the binding result in data set [1], in data set [2] and in data set [3] were “no binding”, “no binding” and “binds”, respectively.

B19: 32 (dsDNA)
DNA 1: GGGGGCGTTGCACACAAACCTTAATTTTCCAATCTATTCCCCC
DNA 2: GGGGGAATAGATTGGAAAATTAAGGTTTGTGTGCAACGCCCCC
As for B19, the binding result in data set [1], in data set [2] and in data set [3] was “binds” in each case.

B20: 49 (dsDNA)
DNA 1: GGGGGCTCTCTGATTTGTGAGTATTGACAGAGAATCCCCC
DNA 2: GGGGGATTCTCTGTCAATACTCACAAATCAGAGAGCCCCC
Take B20: the binding result in data set [1], in data set [2] and in data set [3] was “no binding” throughout.
